Test results taken from patent publication US20210198377A1 (XDCEXPLORER SHANGHAI, published 2021).
Where two headings read alike, the source gives them in different places.

T1: human TPBG (full length, on cells) (human, UniProt Q13641 32-420)
T1 sequence (looked up): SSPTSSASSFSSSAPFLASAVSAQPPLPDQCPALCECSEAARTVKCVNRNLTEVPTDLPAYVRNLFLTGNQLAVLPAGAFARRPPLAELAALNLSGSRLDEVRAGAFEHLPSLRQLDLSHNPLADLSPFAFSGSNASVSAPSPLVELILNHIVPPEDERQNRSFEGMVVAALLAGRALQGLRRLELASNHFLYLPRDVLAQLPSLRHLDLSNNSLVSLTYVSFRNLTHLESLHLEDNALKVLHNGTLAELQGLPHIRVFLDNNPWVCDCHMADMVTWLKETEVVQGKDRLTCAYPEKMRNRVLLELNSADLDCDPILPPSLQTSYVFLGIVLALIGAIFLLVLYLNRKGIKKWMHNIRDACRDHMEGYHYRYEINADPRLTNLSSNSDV

B1: Chimeric Antibody 28D4-MMAE (antibody, human IgG1, DAR about 3, V domains shown)
VH: DVQLVESGGGLVRPGGSLKLSCAASGFTFSNYVMSWARQSPEKRLEWVAEISTGGSHTYYSDTVTGRFTISRDNAKKALYLEMSSLRSEDTAIYYCIMFYYGSSYSMDYWGQGTSVTVSS
VL: DIQMTQSTSSLSASLGDRITISCRASQDIRNYLNWYQQKPDGTVKLLIYHTSRLHSGVPSRFSGSGSGTDYSLTISNLEQEDIATYFCQQGDTLPLTFGAGTRLELK
modifications: MC-VC-PAB-MMAE on cysteines after TCEP reduction, sites not stated
B2: 28D4E6A9-MMAF (antibody, DAR 8, V domains shown)
VH: DVQLVESGGGLVRPGGSLKLSCAASGFTFSNYVMSWARQSPEKRLEWVAEISTGGSHTYYSDTVTGRFTISRDNAKKALYLEMSSLRSEDTAIYYCIMFYYGSSYSMDYWGQGTSVTVSS
VL: DIQMTQSTSSLSASLGDRITISCRASQDIRNYLNWYQQKPDGTVKLLIYHTSRLHSGVPSRFSGSGSGTDYSLTISNLEQEDIATYFCQQGDTLPLTFGAGTRLELK
modifications: MC-MMAF on cysteines after TCEP reduction, sites not stated
B3: Chimeric Antibody 28D4-DM1 (antibody, human IgG1, DAR about 3, V domains shown)
VH: DVQLVESGGGLVRPGGSLKLSCAASGFTFSNYVMSWARQSPEKRLEWVAEISTGGSHTYYSDTVTGRFTISRDNAKKALYLEMSSLRSEDTAIYYCIMFYYGSSYSMDYWGQGTSVTVSS
VL: DIQMTQSTSSLSASLGDRITISCRASQDIRNYLNWYQQKPDGTVKLLIYHTSRLHSGVPSRFSGSGSGTDYSLTISNLEQEDIATYFCQQGDTLPLTFGAGTRLELK
modifications: SMCC-DM1, sites not stated
B4: Chimeric Antibody 28D4 (antibody, V domains shown)
VH: DVQLVESGGGLVRPGGSLKLSCAASGFTFSNYVMSWARQSPEKRLEWVAEISTGGSHTYYSDTVTGRFTISRDNAKKALYLEMSSLRSEDTAIYYCIMFYYGSSYSMDYWGQGTSVTVSS
VL: DIQMTQSTSSLSASLGDRITISCRASQDIRNYLNWYQQKPDGTVKLLIYHTSRLHSGVPSRFSGSGSGTDYSLTISNLEQEDIATYFCQQGDTLPLTFGAGTRLELK
B5: 99E12C7H1-MMAF (antibody, DAR 8, V domains shown)
VH: QIQLVQSGPELKKPGETVKISCKPSGYTFTAYGLSWVKQAPGQGFQWMGWINTYSGVPTYTDDFKGRFAFSLETSAGTASLQITNLKNEDTATYFCARSSIPPFEYWGPGTTLTVSS
VL: SFVMTQSPKFLLVSVGDRVTITCKASQSVSNDVAWYQQKPGQPPRVLIYFASNRYTGVPDRFTGSGYGTDFTFTISTVQAEDLALYFCQQDYSSPWTFGGGTKLEIK
modifications: MC-MMAF on cysteines after TCEP reduction, sites not stated
B6: 37H9C5G2-MMAF (antibody, DAR 8, V domains shown)
VH: QVQLQQSDAELVRPGASVKMSCKVSGYTFTDHTIHWMKQRPEQGLEWIGYIYPRDGSGTYNEKFKGKATLTADKSSSTAYMQLNSLTSEDSAVYFCARDGSSHYWYFDVWGTGTTVTVSS
VL: DIQMTQSPASLSASVGETVTITCRASEIIYNYLAWYQQKQGKSPQLLVYNAKTLAEGVPSRFSGSYSGTQFSLNINSLQSEDFGIYYCQHHHDTPLTFGAGTKLDLK
modifications: MC-MMAF on cysteines after TCEP reduction, sites not stated
B7: Chimeric Antibody 5G4-MMAF (antibody, human IgG1, DAR 3, V domains shown)
VH: EVQLVESGGDLVQPGGSLKLFCAASGFTFSTYGLSWVRQTPDKRLELVATITNNDGSAYYPDSVKGRFTISRDKAKNTLFLQMTSLKSEDTAMYYCARETGFGSSYLFDYWGQGTLVTVSA
VL: NIVMTQTPKFLLVSAGDRVTITCKASQSVSNDVAWYQQKPGQSPKLLIYFATNRYTGVPNRFTGSGYGTEFTFTISSVQAEDLAVYFCQQDYSSPTFGGGTKLEIK
modifications: MC-MMAF on cysteines after TCEP reduction, sites not stated
B8: 5G4H10G5-MMAF (antibody, DAR 8, V domains shown)
VH: EVQLVESGGDLVQPGGSLKLFCAASGFTFSTYGLSWVRQTPDKRLELVATITNNDGSAYYPDSVKGRFTISRDKAKNTLFLQMTSLKSEDTAMYYCARETGFGSSYLFDYWGQGTLVTVSA
VL: NIVMTQTPKFLLVSAGDRVTITCKASQSVSNDVAWYQQKPGQSPKLLIYFATNRYTGVPNRFTGSGYGTEFTFTISSVQAEDLAVYFCQQDYSSPTFGGGTKLEIK
modifications: MC-MMAF on cysteines after TCEP reduction, sites not stated
B9: 106D5G3D10-MMAF (antibody, DAR 8, V domains shown)
VH: EVQLVESGGGLVKPGGSLKLSCAASGFTFSDYGMHWVRQAPEKGLEWVGYISSGTYVVYYADTVKGRFTISRDNAKNTLFLQMTSLRSEDTAIYYCSTYGSNPFDYWGQGTTLTVSS
VL: QLVLTQSPAIMSASPGEKVTITCSATSSVSSMHWFQQKPVTSPKLWIYSTSNLASGVPTRFSGSGSGTSYSLTISRMEAEDAATYYCQQRSGYPPIFTFGSGTKLEIK
modifications: MC-MMAF on cysteines after TCEP reduction, sites not stated
B10: 36A10D8B12-MMAF (antibody, DAR 8, V domains shown)
VH: DVQLQESGPGMVKPSQSLSLTCTVTGYSITSGYDWHWIRHFPGNKLEWMGYISYSGNTNYNPSLKSRISITHNTSKNHFFLRLNSVTTEDTATYYCARGYGNWDAMDYWGQGTSVTVSS
VL: DIVMTQSQKFMSTSVGDRVSVTCKASQIVDTNVAWYQQKPGQSPKALISSASYRYSGVPDRFTGSGSGTDFTLTISNVQSEDLAEYFCQQYNSYPLTFGAGTKLELT
modifications: MC-MMAF on cysteines after TCEP reduction, sites not stated
B11: 12B12C7C3-MMAF (antibody, DAR 8, V domains shown)
VH: DVQLVESGGGLVQPGGSRKLSCAASGFTFSNFGMHWVRQAPEKGLEWVAYISSGSTSFYYADTVKGRFTISRDNPKNTLFLQMTSLRSEDTAMYYCSRTNSLLRGFFDAWGAGTTVTVSS
VL: DIVLTQSPASLAVSLGQRATISCRASQSVSSSSYTYLHWYQQKPGQPPKLLIKSASNLESGVPARFSGTGSGTDFTLNIHPVEEEDTATYYCQHSWEIPLTFGAGTKLELK
modifications: MC-MMAF on cysteines after TCEP reduction, sites not stated
B12: Chimeric Antibody 12B12 (antibody, V domains shown)
VH: DVQLVESGGGLVQPGGSRKLSCAASGFTFSNFGMHWVRQAPEKGLEWVAYISSGSTSFYYADTVKGRFTISRDNPKNTLFLQMTSLRSEDTAMYYCSRTNSLLRGFFDAWGAGTTVTVSS
VL: DIVLTQSPASLAVSLGQRATISCRASQSVSSSSYTYLHWYQQKPGQPPKLLIKSASNLESGVPARFSGTGSGTDFTLNIHPVEEEDTATYYCQHSWEIPLTFGAGTKLELK
B13: Chimeric Antibody 12B12-DM1 (antibody, human IgG1, DAR about 3, V domains shown)
VH: DVQLVESGGGLVQPGGSRKLSCAASGFTFSNFGMHWVRQAPEKGLEWVAYISSGSTSFYYADTVKGRFTISRDNPKNTLFLQMTSLRSEDTAMYYCSRTNSLLRGFFDAWGAGTTVTVSS
VL: DIVLTQSPASLAVSLGQRATISCRASQSVSSSSYTYLHWYQQKPGQPPKLLIKSASNLESGVPARFSGTGSGTDFTLNIHPVEEEDTATYYCQHSWEIPLTFGAGTKLELK
modifications: SMCC-DM1, sites not stated
B14: Chimeric Antibody 12B12-MMAE (antibody, human IgG1, DAR about 3, V domains shown)
VH: DVQLVESGGGLVQPGGSRKLSCAASGFTFSNFGMHWVRQAPEKGLEWVAYISSGSTSFYYADTVKGRFTISRDNPKNTLFLQMTSLRSEDTAMYYCSRTNSLLRGFFDAWGAGTTVTVSS
VL: DIVLTQSPASLAVSLGQRATISCRASQSVSSSSYTYLHWYQQKPGQPPKLLIKSASNLESGVPARFSGTGSGTDFTLNIHPVEEEDTATYYCQHSWEIPLTFGAGTKLELK
modifications: MC-VC-PAB-MMAE on cysteines after TCEP reduction, sites not stated
B15: 103E2E9C2-MMAF (antibody, DAR 8, V domains shown)
VH: EVQLQQSGPVLVKPGASVKMSCEASGYSFIDYYMSWVKQSRGRSLEWIGVFNPYSGEIIYNQKFKGKATLTVDKSSSTAYMELSSLTSEDSGVYSCARLRISYYAIDYWGQGTSVAVSS
VL: ENVLTQSPAIMSASPGEKVTMTCRATSSVSSGHFHWYQQKSGASPKVWIYSTSNLASGVPARFSGSGSGTSFSLTISSVEAEDVATYFCQQYSGYPLTFGGGTKLEIK
modifications: MC-MMAF on cysteines after TCEP reduction, sites not stated
B16: Chimeric Antibody 39A11-MMAF (antibody, human IgG1, DAR 3, V domains shown)
VH: QVQLQQSGAELMKPGASMRLSCKATGYTFTGYWLEWIKRRPGHGLEWIGEILPGRGSTNYNEKFKGKATFTAETSSNTAYMQLTSLTTEDSAIYYCARGGRDFDNWGQGTTLTVSS
VL: DIQMTQSTSSLSASLGDRVTISCSASQGINNHLNWYQQKPDGTVKLLIYYTSSLHSGVPSRFSGSGSGTDYSLTISNLEPEDIAIYYCQQFSKLPYTFGGGTKVEMK
modifications: MC-MMAF on cysteines after TCEP reduction, sites not stated
B17: 39A11G5F2-MMAF (antibody, DAR 8, V domains shown)
VH: QVQLQQSGAELMKPGASMRLSCKATGYTFTGYWLEWIKRRPGHGLEWIGEILPGRGSTNYNEKFKGKATFTAETSSNTAYMQLTSLTTEDSAIYYCARGGRDFDNWGQGTTLTVSS
VL: DIQMTQSTSSLSASLGDRVTISCSASQGINNHLNWYQQKPDGTVKLLIYYTSSLHSGVPSRFSGSGSGTDYSLTISNLEPEDIAIYYCQQFSKLPYTFGGGTKVEMK
modifications: MC-MMAF on cysteines after TCEP reduction, sites not stated
B18: 52C9E9F6-MMAF (antibody, DAR 8, V domains shown)
VH: QVQLQQSGAELMKPGASVKLSCKATGYTFTGYWIEWIKQRPGHGLEWIGEILPGRGSTDYNEKFKGKATFTADTSSNTAYMQLSSLTTEDSAIYYCTRGRLDFTYWGQGTLVTVSA
VL: DIQMTQTTSSLSASLGDRVTISCSASQGIRNYLNWYQQKPDGTVKLLIYYTSSLHSGVPSRFSGSGSGTDYSLTISNLEPEDIATYYCQQYSKVPWTFGGGTKLEIK
modifications: MC-MMAF on cysteines after TCEP reduction, sites not stated

How the values were obtained:
Test in all cases: cell-based or functional assay
[1] = target: T1, human TPBG (full length, on cells)
[2] = target: T1, human TPBG (full length, on cells); remark: listed apart in the source
[3] = target: T1, human TPBG (full length, on cells); remark: listed apart in the source
[4] = target: T1, human TPBG (full length, on cells); remark: listed apart in the source

| Binder | IC50 of cytotoxicity on recombinant 293-hTPBG cells (CellTiter-Glo) [2] | EC50 of cytotoxicity on TPBG-positive NCI-H1568 cells (CellTiter-Glo) [3] | other results |
| --- | --- | --- | --- |
| B1 | 0.08 nM | – | IC50 of cytotoxicity on TPBG-positive NCI-H1299 cells (CellTiter-Glo) [1]: 369 nM; IC50 of cytotoxicity on TPBG-positive NCI-H1568 cells (CellTiter-Glo) [1]: > 100 nM |
| B2 | – | 0.038 nM | – |
| B3 | 0.406 nM | – | IC50 of cytotoxicity on TPBG-positive NCI-H1299 cells (CellTiter-Glo) [1]: 6.08 nM; IC50 of cytotoxicity on TPBG-positive NCI-H1568 cells (CellTiter-Glo) [1]: 2.51 nM |
| B4 | 1.14 nM | – | – |
| B5 | – | 0.844 nM | – |
| B6 | – | 0.12 nM | – |
| B7 | – | – | IC50 of cytotoxicity on TPBG-positive NCI-H1299 cells (CellTiter-Glo) [4]: 87.3 nM |
| B8 | – | 0.626 nM | – |
| B9 | – | 0.208 nM | – |
| B10 | – | 0.066 nM | – |
| B11 | – | 0.042 nM | – |
| B12 | 13.6 nM | – | – |
| B13 | 0.154 nM | – | IC50 of cytotoxicity on TPBG-positive NCI-H1299 cells (CellTiter-Glo) [1]: 10.4 nM; IC50 of cytotoxicity on TPBG-positive NCI-H1568 cells (CellTiter-Glo) [1]: 1.27 nM |
| B14 | 0.033 nM | – | IC50 of cytotoxicity on TPBG-positive NCI-H1299 cells (CellTiter-Glo) [1]: > 100 nM; IC50 of cytotoxicity on TPBG-positive NCI-H1568 cells (CellTiter-Glo) [1]: > 100 nM |
| B15 | – | 0.135 nM | – |
| B16 | – | – | IC50 of cytotoxicity on TPBG-positive NCI-H1299 cells (CellTiter-Glo) [4]: 4.3 nM |
| B17 | – | 0.285 nM | – |
| B18 | – | 1.49 nM | – |
